From paper PMC5932034

Target: T1, FlhA^C−link (longer FlhA^C construct that includes the linker) (Salmonella enterica serovar Typhimurium ST313), P40729
T1 chain: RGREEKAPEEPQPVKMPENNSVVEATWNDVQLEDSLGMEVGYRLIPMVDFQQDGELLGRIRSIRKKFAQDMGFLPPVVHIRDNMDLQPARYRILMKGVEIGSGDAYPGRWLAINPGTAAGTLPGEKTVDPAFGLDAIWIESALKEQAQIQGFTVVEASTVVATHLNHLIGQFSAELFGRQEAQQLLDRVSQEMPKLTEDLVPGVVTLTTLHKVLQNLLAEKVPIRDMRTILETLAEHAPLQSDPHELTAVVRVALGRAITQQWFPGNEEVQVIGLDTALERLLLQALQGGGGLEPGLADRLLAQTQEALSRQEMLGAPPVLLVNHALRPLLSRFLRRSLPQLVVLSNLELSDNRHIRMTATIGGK
Test: SEC-MALS; Superdex 200 10/300 GL; 50 mM NaPi pH 6.8, 0.1 M NaCl, 0.05% NaN3; samples at 0.05–0.5 mM; room temperature
Settings: remark: other sources report otherwise

B1: FlhA^C−link (longer FlhA^C construct that includes the linker), P40729 328-692 (domain or fragment)
chain: T1 chain
- stoichiometry N: 2
